From US8168595B2, “Antithrombotic dual inhibitors comprising a biotin residue” (priority 2004, dated 2012)
Structures can show the parent of a compound that is named as a salt. Where two headings read alike, the source gives them in different places.

Key:
factor IIa = factor IIa (Homo sapiens, UniProt P00734); experiment: In vitro amidolytic anti-factor IIa activity in human plasma (S2238); format: biochemical; conditions: human plasma pH 7.4, substrate S2238; read-out: Anti-IIa Human plasma pH 7.4 IC-50
Description: (§1) In Vitro Test for Determination of the Anti-Factor Xa and Factor IIa Activity in Human Plasma The anti-factor Xa and IIa activity of the tested compounds in human plasma were measured amidolytically using S2222 or S2238 (Chromogenix, Chromogenics Ltd, Molndal, Sweden) as substrates, respectively. The protcols were based on the method described by Teien and Lie. (Teien A N, Lie M. Evaluation of an amidolytic heparin assay method increased sensitivity by adding purified antithrombin III. Thromb. Res. 1977, 10: 399-410). Both activities are expressed in IC-50 (Mol/L).

[1] = Pharmacokinetics after s.c. administration in rats; format: in vivo, male Wistar rats; conditions: rat, 100 nmol/kg s.c.; for AUC(0-inf) / MRT / Tmax / half-life / Cmax: male, Wistar, sc; for AUC(0-inf) / MRT / Tmax / half-life: plasma, 100 nmol/kg; for AUC(0-inf) / MRT / Tmax / half-life / Cmax / Cl / Vz: mean ± s.e.m.; for AUC(0-inf) / MRT / Tmax / Cmax / Cl / Vz: n = 3; for half-life: n = 3, read-out: T½ eli (converted); for pharmacokinetic behavior in rats, compound III compared with Org 42675: within the variability of the experiment
Description: 3.1 Pharmacokinetics The pharmacokinetic properties of Org 42675 and of compound III of this invention were studied in male Wistar rats of 300-400 gr. The rats were anaesthetized by inhalation of a mixture of O2/N2O/isoflurane, after which the right jugular vein was cannulated. The next day rats were treated s.c. with doses of 100 nmol/kg. After s.c. administration, blood was sampled at several time intervals. Then the blood was centrifuged after which the plasma was siphoned off and stored at −20° C. until use. The concentration of the tested compound was measured amidolytically using S-2222 or S-2238 as substrates (Chromogenix, Chromogenics Ltd, Molndal, Sweden) to determine the anti-Xa or anti-IIa activity, respectively. Both procedures were based on the methods of Teien and Lie (Teien A N, Lie M. Evaluation of an amidolytic heparin assay method increased sensitivity by adding purified antithrombin III. Thromb. Res. 1977, 10: 399-410). The concentrations in the obtained plasma samples were determined against a calibration curve which was made of the stock solution of the tested compound itself. The concentration in the samples was expressed in nmol/mL and the kinetic parameters were calculated with the noncompartment model of WinNonlin. (see FIG. 1)

[2] = in vivo; cited from earlier work
[3] = Pharmacokinetics - neutralization experiment with avidin in rats; format: in vivo; conditions: rat, 100 nmol/kg s.c.
Description: 3.2 Pharmacokinetics—Neutralization Experiment:
Rats were treated with compound III of this invention, or Org 42675 at a dose of 100 nmol/kg s.c. At t=2 h, a blood sample was taken and 10 mg/kg of Avidin (from egg white, Sigma) was administered i.v. to the rats treated with compound III of this invention or Org 42675. Blood was sampled at 0.17, 0.5, 1, 2, 3, and 7 hours subsequently. The blood was treated as described in the pharmacokinetic experiment and the concentration of the samples was determined by measuring the (residual) anti-Xa or anti-IIa activity. (see FIG. 2)

factor Xa = experiment: In vitro amidolytic anti-factor Xa activity in human plasma (S2222); format: biochemical; conditions: human plasma pH 7.4, substrate S2222; read-out: Anti-Xa Human plasma pH 7.4 IC-50
Description: as §1

[4] = experimental thrombosis; cited from earlier work
[5] = plasma level by anti_Xa activity
[6] = plasma level by anti-IIa activity

SMILES	IC50 (factor IIa) [nM]	AUC(0-inf) [1, 5] [µM·h]	MRT [1, 5] [h]	Tmax [1, 5] [h]	half-life [1, 5] [h]	Cmax [1, 5] [µM]	Cl [1, 5] [L/h/kg]	Vz [1, 5] [L/kg]	pharmacokinetic behavior in rats, compound III compared with Org 42675 [1]	IC50 (factor Xa) [nM]	also measured
COc1cc(C)c(S(=O)(=O)N[C@@H](CC(=O)NCCCC(=O)NCCOCCOCCOCCO[C@H]2[C@H](OC)[C@@H](OC)[C@@H](O[C@H]3[C@H](OC)[C@@H](OC)[C@H](O[C@H]4[C@H](OS(=O)(=O)O)[C@@H](OS(=O)(=O)O)[C@@H](O[C@H]5[C@H](OC)[C@@H](OC)[C@H](O[C@H]6[C@H](OC)[C@@H](OS(=O)(=O)O)[C@@H](OC)O[C@@H]6COS(=O)(=O)O)O[C@H]5C(=O)O)O[C@@H]4COS(=O)(=O)O)O[C@@H]3C(=O)O)O[C@@H]2COS(=O)(=O)O)C(=O)N[C@H](Cc2ccc(C(=N)N)cc2)C(=O)N2CCCCC2)c(C)c1C [Org 42675, reference compound]	17.8	5.3 ± 0.3	4.6 ± 0.2	2.3 ± 0.2	2.7 ± 0.2	1 ± 0.02	0.0191 ± 0.0011	0.074 ± 0.0045	the same pharmacokinetic behavior	0.767	prolonged half-life in comparison to the corresponding non-conjugated direct thrombin inhibitor derived from NAPAP [2]: 10 fold; AUC(0-inf) ([3]; Wistar, plasma, subcutaneous, avidin 10 mg/kg i.v. at t = 2 h, calculated from T = 2 h, anti_Xa activity, mean ± s.e.m., n = 3): 4.8 ± 0.6 µM·h; pharmacokinetic behavior on addition of avidin ([3]; avidin 10 mg/kg i.v. at t = 2 h): not affected; efficacy in comparison with argatroban, heparin and fondaparinux [4]: improved efficacy
COc1cc(C)c(S(=O)(=O)N[C@@H](CC(=O)NCCCC(=O)N[C@@H](CCCCNC(=O)CCCC[C@@H]2SC[C@@H]3NC(=O)N[C@@H]32)C(=O)NCCOCCOCCOCCO[C@H]2[C@H](OC)[C@@H](OC)[C@@H](O[C@H]3[C@H](OC)[C@@H](OC)[C@H](O[C@H]4[C@H](OS(=O)(=O)O)[C@@H](OS(=O)(=O)O)[C@@H](O[C@H]5[C@H](OC)[C@@H](OC)[C@H](O[C@H]6[C@H](OC)[C@@H](OS(=O)(=O)O)[C@@H](OC)O[C@@H]6COS(=O)(=O)O)O[C@H]5C(=O)O)O[C@@H]4COS(=O)(=O)O)O[C@@H]3C(=O)O)O[C@@H]2COS(=O)(=O)O)C(=O)N[C@H](Cc2ccc(C(=N)N)cc2)C(=O)N2CCCCC2)c(C)c1C [Compound III, sodium salt]	16.2	7.2 ± 0.2	5.9 ± 0.5	1.2 ± 0.4	3.9 ± 0.3	1.1 ± 0.1	0.0139 ± 0.0004	0.078 ± 0.0046	the same pharmacokinetic behavior	0.843	AUC(0-inf) [1, 6]: 5 ± 0.6 µM·h; MRT [1, 6]: 4.3 ± 0.3 h; Tmax [1, 6]: 1.5 ± 0.5 h; half-life [1, 6]: 2.7 ± 0.5 h; Cl [1, 6]: 0.0206 ± 0.0024 L/h/kg; Vz [1, 6]: 0.078 ± 0.0042 L/kg; neutralization of antithrombotic activity ((residual) anti-Xa and anti-IIa activity) by avidin ([3]; avidin 10 mg/kg i.v.): can be neutralized
